Patent US9540337B2, “Gamma-glutamyl transpeptidase inhibitors and methods of use” (The Board of Regents of the University of Oklahoma, priority 2012, dated 2017)

Tests used:
[1] = test system: T1, N[C@@H](CCC(=O)Nc1ccc([N+](=O)[O-])cc1)C(=O)O; assay: Initial rate studies with D-GpNA and L-GpNA, with or without acceptor GlyGly; assay type: biochemical, human; conditions: pH 7.4, 37.0 °C
T1 construct: lacking the transmembrane domain; made in house; host or cells: Pichia pastoris
Method: (§1) Transpeptidation Reaction: The same assay buffer was used for both the hydrolysis reaction and the transpeptidation reaction. The transpeptidation reaction included 40 mM glycylglycine (glygly, Sigma, St. Louis, Mo.) as the acceptor. The concentration of the substrate for the transpeptidation reaction, L-GpNA (Sigma) was varied from 0.25 mM to 3 mM. The concentration of L-GpNA was 3 mM for experiments in which the concentration of glygly was varied. To initiate the transpeptidation reaction, 4 mU GGT were added.
(§2) 1. […] 2, which describes a ping pong kinetic mechanism. […] 3 and 4. […] 5 (25).
(§3) In eq. […] Data for noncompetitive inhibition were fitted to eq. 6. […] 6 [25].
(§4) Initial Rate Studies with D-GpNA and L-GpNA: In this study, the inhibition of both the GGT hydrolysis and transpeptidation reactions by OU749 and a new series of thiadiazol sulfonamide analogs was studied. The hydrolysis and transpeptidation reactions were analyzed separately by using different stereo-isomers of the γ-glutamyl-p-nitroanilide (GpNA) substrate. The kinetics of both reactions were first characterized in the absence of inhibitors. Cleavage of the γ-glutamyl bond of either D-GpNA or L-GpNA releases p-nitroanaline, which has an OD405 of 7,680 M^−1 cm^−1, allowing for the reactions to be monitored continuously with high sensitivity. The D-glutamyl isomer of GpNA was used as the substrate for the hydrolysis reaction, in which water serves as the acceptor. The L-glutamyl isomer of GpNA, with glycylglycine (GlyGly) as an acceptor, was used for the transpeptidation reaction. L-GpNA can serve as both a substrate and a low affinity acceptor, while D-GpNA is unable to serve as an acceptor (18, 21, 26). Therefore, in the absence of an added acceptor GGT exclusively catalyzes a hydrolysis reaction with D-GpNA as the substrate. When L-GpNA is used as a substrate, the GGT reaction is a mixture of both the hydrolysis and transpeptidation reactions. Under these conditions, the rate of the reaction is the sum of hydrolysis and transpeptidation reactions, with the hydrolysis reaction contributing more at low L-GpNA concentrations and transpeptidation dominating at saturating substrate concentrations. […] However, the maximum rate (Vmax) obtained with L-GpNA was approximately 3-times faster than that measured with D-GpNA, and the KGpNA for L-GpNA was 5-times higher than that measured for D-GpNA. This is at least partially due to the ability of L-GpNA to serve as an acceptor, resulting in a transpeptidation reaction, which is faster than the hydrolysis reaction. Therefore, to study the hydrolysis reaction in isolation, D-GpNA was used as the substrate without any added acceptor.

[2] = test system: T2, N[C@H](CCC(=O)Nc1ccc([N+](=O)[O-])cc1)C(=O)O; assay: as above; assay type: biochemical, human; conditions: pH 7.4, 37.0 °C
T2 construct: lacking the transmembrane domain; made in house; host or cells: Pichia pastoris
Method: as §1, §2, §3, §4

Chain of Human GGT1 (Homo sapiens) (chain, as listed by the source): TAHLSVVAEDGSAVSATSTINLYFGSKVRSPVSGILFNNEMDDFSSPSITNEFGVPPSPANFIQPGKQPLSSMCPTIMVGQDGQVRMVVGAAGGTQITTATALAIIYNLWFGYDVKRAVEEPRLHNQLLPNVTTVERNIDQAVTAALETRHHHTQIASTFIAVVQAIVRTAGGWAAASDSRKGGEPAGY
Chain of Human GGT1 (Homo sapiens) (chain, as listed by the source): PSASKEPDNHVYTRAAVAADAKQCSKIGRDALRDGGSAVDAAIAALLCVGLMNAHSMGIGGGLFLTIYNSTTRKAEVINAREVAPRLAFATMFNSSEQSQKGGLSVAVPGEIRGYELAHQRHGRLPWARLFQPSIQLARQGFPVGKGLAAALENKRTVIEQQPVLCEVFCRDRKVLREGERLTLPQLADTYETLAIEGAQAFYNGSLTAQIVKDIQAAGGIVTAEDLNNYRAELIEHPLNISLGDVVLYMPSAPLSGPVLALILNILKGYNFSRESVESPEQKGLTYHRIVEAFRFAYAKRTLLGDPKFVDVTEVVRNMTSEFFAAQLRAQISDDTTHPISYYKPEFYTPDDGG

Substance: Human GGT1 (Homo sapiens)
- Km ([1]; other: minus acceptor): 830 ± 60 µM
- Km ([1]; other: plus acceptor GlyGly): 1200 ± 100 µM
- Km ([2]; other: minus acceptor): 160 ± 20 µM
- Km ([2]; other: plus acceptor GlyGly): 4200 ± 100 µM
